US20150218594A1, “CELL-FREE AND MINIMIZED METABOLIC REACTION CASCADES FOR THE PRODUCTION OF CHEMICALS” (CLARIANT PRODUKTE (DEUTSCHLAND) GMBH, priority 2012, published 2015)
Read-outs that look alike come from different tables or passages of the source.

B1: GDH: Glucose dehydrogenase GDH (EC 1.1.1.47), Sulfolobus solfataricus, NP 344316.1, Seq ID 02 (protein)
chain: MKAIIVKPPNAGVQVKDVDEKKLDSYGKIKIRTIYNGICGTDREIVNGKLTLSTLPKGKDFLVLGHEAIGVVEESYHGFSQGDLVMPVNRRGCGICRNCLVGRPDFCETGEFGEAGIHKMDGFMREWWYDDPKYLVKIPKSIEDIGILAQPLADIEKSIEEILEVQKRVPVWTCDDGTLNCRKVLVVGTGPIGVLFTLLFRTYGLEVWMANRREPTEVEQTVIEETKTNYYNSSNGYDKLKDSVGKFDVIIDATGADVNILGNVIPLLGRNGVLGLFGFSTSGSVPLDYKTLQEIVHTNKTIIGLVNGQKPHFQQAVVHLASWKTLYPKAAKMLITKTVSINDEKELLKVLREKEHGEIKIRILWESGRPVLGSSHHHHHH
modifications: Glucose dehydrogenase (EC 1.1.1.47), Sulfolobus solfataricus Protein sequence including C-terminal His-Tag
B2: KDC: Branched-chain-2-oxo acid decarboxylase KDC (EC 4.1.1.72), Lactococcus lactis, Seq ID 16 (protein)
chain: MGSSHHHHHHSSGLVPRGSHMASMYTVGDYLLDRLHELGIEEIFGVPGDYNLQFLDQIISREDMKWIGNANELNASYMADGYARTKKAAAFLTTFGVGELSAINGLAGSYAENLPVVEIVGSPTSKVQNDGKFVHHTLADGDFKHFMKMHEPVTAARTLLTAENATYEIDRVLSQLLKERKPVYINLPVDVAAAKAEKPALSLEKESSTTNTTEQVILSKIEESLKNAQKPVVIAGHEVISFGLEKTVTQFVSETKLPITTLNFGKSAVDESLPSFLGIYNGKLSEISLKNFVESADFILMLGVKLTDSSTGAFTHHLDENKMISLNIDEGIIFNKVVEDFDFRAVVSSLSELKGIEYEGQYIDKQYEEFIPSSAPLSQDRLWQAVESLTQSNETIVAEQGTSFFGASTIFLKSNSRFIGQPLWGSIGYTFPAALGSQIADKESRHLLFIGDGSLQLTVQELGLSIREKLNPICFIINNDGYTVEREIHGPTQSYNDIPMWNYSKLPETFGATEDRVVSKIVRTENEFVSVMKEAQADVNRMYWIELVLEKEDAPKLLKKMGKLFAEQNK
modifications: Branched-chain ketoacid decarboxylase (EC 4.1.1.72), Lactococcus lactis Protein sequence including N-terminal His-Tag
B3: KARI: Ketol-acid reductoisomerase KARI (EC 1.1.1.86), Meiothermus ruber, Seq ID 14 (protein)
chain: MKIYYDQDADIGFIKDKTVAILGFGSQGHAHALNLRDSGIKVVVGLRPGSRNEEKARKAGLEVLPVGEAVRRADVVMILLPDETQGAVYKAEVEPNLKEGAALAFAHGFNIHFGQIKPRRDLDVWMVAPKGPGHLVRSEYEKGSGVPSLVAVYQDASGSAFPTALAYAKANGGTRAGTIATTFKDETETDLFGEQTVLCGGLTQLIAAGFETLVEAGYPPEMAYFECLHEVKLIVDLIYESGFAGMRYSISNTAEYGDYTRGPMVINREETKARMREVLRQIQQGEFAREWMLENVVGQPTLNANRNYWKDHPIEQVGPKLRAMMPFLKSRFTKEEVGSSGRPVLGSSHHHHHH
modifications: Ketolacid reductoisomerase (EC 1.1.1.86), Meiothermus ruber Protein sequence including C-terminal His-Tag
B4: ALS: Acetolactate synthase ALS (EC 2.2.1.6), Bacillus subtilis, Seq ID 12 (protein, listed as Bacillus subtilis)
chain: MLTKATKEQKSLVKNRGAELVVDCLVEQGVTHVFGIPGAKIDAVFDALQDKGPEIIVARHEQNAAFMAQAVGRLTGKPGVVLVTSGPGASNLATGLLTANTEGDPVVALAGNVIRADRLKRTHQSLDNAALFQPITKYSVEVQDVKNIPEAVTNAFRIASAGQAGAAFVSFPQDVVNEVTNTKNVRAVAAPKLGPAADDAISAAIAKIQTAKLPVVLVGMKGGRPEAIKAVRKLLKKVQLPFVETYQAAGTLSRDLEDQYFGRIGLFRNQPGDLLLEQADVVLTIGYDPIEYDPKFWNINGDRTIIHLDEIIADIDHAYQPDLELIGDIPSTINHIEHDAVKVEFAEREQKILSDLKQYMHEGEQVPADWKSDRAHPLEIVKELRNAVDDHVTVTCDIGSHAIWMSRYFRSYEPLTLMISNGMQTLGVALPWAIGASLVKPGEKVVSVSGDGGFLFSAMELETAVRLKAPIVHIVWNDSTYDMVAFQQLKKYNRTSAVDFGNIDIVKYAESFGATGLRVESPDQLADVLRQGMNAEGPVIIDVPVDYSDNINLASDKLPKEFGELMKTKALL

What was measured:
[1] = Enzyme temperature optimum; assay type: biochemical
[2] = GDH activity assay (oxidation of D-glucose to gluconate, NAD reduction); assay type: biochemical; settings: natural substrate
Procedure: (§1) (J. Mol. Catal. B-Enzym. 2009, 61, 30-35).
GDH activity: GDH activity was assayed at 50° C. by oxidizing D-glucose to gluconate, whereby the coenzyme NAD is reduced to NADH. Assay mixture contained 50 mM HEPES (pH 7), 2 mM NAD and 50 mM D-glucose. (J. Biol. Chem. 2006, 281, 14796-14804)

[3] = Ethanol tolerance of enzymes (E50); assay type: biochemical; settings: 45° C.
[4] = Isobutanol tolerance of enzymes (I50); assay type: biochemical
[5] = Table 2, value with literature reference; cited from earlier work
[6] = KDC activity (decarboxylation of 2-ketoisovalerate); assay type: biochemical; settings: natural substrate
Procedure: as §1
KDC activity: KDC activity was assayed by following the decarboxylation of 2-ketoisovalerate to isobutyraldehyde at 50° C. and 340 nm. Assay mixture contained 50 mM HEPES (pH 7), 0.1 mM thiamine-pyrophosphate, 2.5 mM MgCl2 and 60 mM 2-ketoisovalerate. Decarboxylation rate was calculated using the molar extinction coefficient of 2-ketoisovalerate (s=0.017 L mmol-1 cm-1). (J. Mol. Catal. B-Enzym. 2009, 61, 30-35)

[7] = Enzyme half-life at 50° C.
[8] = KARI activity (NADH consumption, acetolactate to 2,3-dihydroxy isovalerate); assay type: biochemical; settings: natural substrate
Procedure: as §1
KARL activity: KARI activity was assayed by following the NADH consumption connected to the conversion of acetolactate to 2,3-dihydroxy isovalerate at 50° C. Assay mixture contained 5 mM acetolactate, 0.3 mM NADH, 10 mM MgCl2 and 50 mM HEPES, pH 7.

[9] = ALS activity (pyruvate consumption); assay type: biochemical; settings: natural substrate
Procedure: as §1
ALS activity: ALS activity was determined by following pyruvate consumption at 50° C. Reaction mixtures contained 25 mM HEPES (pH 7), 0.1 mM thiamine-pyrophosphate, 2.5 mM MgCl2, 15 mM sodium pyruvate. Pyruvate concentration in the samples was determined via lactate dehydrogenase as described elsewhere. (Biochem. J. 2007, 403, 421-430)

Row | T-Optimum ([1]; Table 1) | T-Optimum ([1]; Table 2) [°C] | Molecule | Activity, 50° C. [2] [U/mg] | E50: Ethanol concentration which causes loss of 50% activity [3] | I50: Isobutanol concentration which causes loss of 50% activity ([4]; 45° C.) | T-Optimum [5] | Activity, 50° C. [6] [U/mg] | Half-life, 50° C. [7] [h] | Activity, 50° C. [8] [U/mg] | I50: Isobutanol concentration which causes loss of 50% activity ([4]; 40° C.) | Activity, 50° C. [9] [U/mg] | I50: Isobutanol concentration which causes loss of 50% activity ([4]; 50° C.)
1 | 70 50 °C | 70 | B1 | 15 | 30 (45° C.) % v/v | 9 (45° C.) % v/v | – | – | – | – | – | – | –
2 | – | – | B2 | – | – | 4 (45° C.) % v/v | 50^[5] ° C. | 150 | >24 | – | – | – | –
3 | – | 55 | B3 | – | – | – | – | – | 34 | 0.7 | 8 (40° C.) % v/v | – | –
4 | – | – | B4 | – | – | – | 37^[4] ° C. | – | 12 | – | – | 30 | 4 (50° C.) % v/v
